The values below come from patent US8491891B2, “Human beta-glucuronidase mutants with elevated enzymatic activity under physiological conditions and method for identifying such” (Academia Sinica, priority 2008, dated 2013).

Substitutions are numbered along the chain they refer to. In names and notes the source's numbering stands.

Data set [1] in a line: Relative activity of membrane-tethered human β-glucuronidase variants on 3T3 cells by flow cytometry (FL4/FL1). It counts as cell-based. Particulars: membrane-tethered enzyme, pH 7.0, substrate ELF97 β-D-glucuronide. As for the experimental part:
The 3T3 cell libraries mentioned above were screened by FACS analysis for cells that express human β-glucuronidase variants with elevated enzymatic activity. 10^7 3T3 cells expressing membrane-bound human β-glucuronidase variants were washed and suspended in 0.4 ml BSA/HBSS (5.4 mM KCl, 0.3 mM Na2HPO4, 0.4 mM KH2PO4, 4.2 mM NaHCO3, 1.3 mM CaCl2, 0.5 mM MgCl2, 0.6 mM MgSO4, 137 mM NaCl, 5.6 mM D-glucose, pH 7.4) containing 0.5% bovine serum albumin (BSA) and 20 μg/ml 7G8-FITC for 30 min at 4° C. Cells were then washed and incubated with 25, 50 or 100 μM ELF97 β-D-glucuronide at defined pH values in 50 mM Bis-Tris, 25 mM glucose, 85.6 mM NaCl, 5.4 mM KCl, 0.6 mM MgSO4, 1.3 mM CaCl2) at 37° C. for 10 min. The cells were washed with ice-cold 0.5% BSA/HBSS and suspended in 0.5% BSA/HBSS containing 5 μg/ml propidium iodide (Sigma). Cells were then sorted on a FACSVantage DiVa (Becton, Dickinson and Company, Franklin Lakes, N.J.) equipped with an Enterprise IIC argon laser for dual excitation at 488 and 351-364 nm. Dead cells (propidium iodide positive, high FL3 fluorescence) were gated out before 7G8-FITC immunofluorescence was detected at excitation/emission wavelengths of 488/515 nm (FL1) and ELF97 was detected at excitation/emission wavelengths of 351/530 nm (FL4). […] The sorted cells were cultured for 4-10 days for sequential rounds of cell sorting or RNA extraction. Flow cytometer data was analyzed using Flowjo (Tree star, Ashland, Oreg.).
Independent 3T3 clones (5×10^7) in library EP2 mentioned above were immunofluorescence stained with 7G8-FITC and reacted with ELF97 β-D-glucuronide at pH 7.0. Sixteen individual cell clones were isolated after three rounds of sorting and the human β-glucuronidase genes were sequenced. […] Table 1 below lists amino acid substitutions in five exemplary variants and their relative enzymatic activities.
Background: A flow cytometer gives signals particle by particle.

Data set [2] in a line: Kinetic values (Km, kcat) of soluble recombinant human β-glucuronidase and variants. Particulars: for kcat/Km, fold higher than wild-type human β-glucuronidase: pH 7.0. It counts as biochemical. As for the experimental part: Recombinant His-tagged wild-type human β-glucuronidase and its variants (soluble) were produced in and purified from stable 3T3 fibroblast lines, following the method described above also the method described in Wu et al., Biotechnol Appl Biochem 40:167-172 (2004).
(§1) The pH-dependent enzyme activities of the above-mentioned recombinant human beta-glucuronidase and variants were measured in triplicate with 0.1 mM ELF97 β-D-glucuronide at 37° C. for 30 minutes at a defined pH ranging from 3-10 in a beta-glucuronidase reaction buffer (50 mM Bis-Tris, 50 mM triethanol amine, 100 mM acetic acid, 0.1% BSA). The reaction was quenched by adding an equal volume of a stop buffer (2 M Tris-HCl, 0.8 M sodium bicarbonate, pH 8). The fluorescence of ELF97 was measured in a Gemini EM microplate spectrofluorometer (Molecular Device, Sunnyvale, Calif.) at excitation/emission wavelengths of 355/555 nm. Kinetic values for human beta-glucuronidase substrate hydrolysis were determined by diluting ELF97 β-D-glucuronide (2 mM) in a pH 4.5 or pH 7.0 beta-glucuronidase reaction buffer 1:1 with defined concentrations of human beta-glucuronidase in 200 μl. Fluorescence was immediately measured under thermal control at 37° C. for 8-10 min. The measurement was repeated using the same amount of enzyme at different substrate concentrations in an optimal range. The acquired readings were converted to product concentration based on preestablished standard curves. Double reciprocal plots were used to determine Km and kcat. Kinetic assays were performed at least 3 times and mean values were calculated. The stability of recombinant human beta-glucuronidase variants was carried out by measuring their enzymatic activity at time 0 and again after incubating 5 μg purified enzymes in PBS (containing 0.5 mg/ml BSA) at 37° C. for 14 days. The enzymatic activities of the human beta-glucuronidase variants were measured in triplicate with 0.5 mM 4-methylumbelliferyl β-D-glucuronide at 37° C. for 15 minutes at pH 7.0 in β-glucuronidase reaction buffer. The reaction was terminated by adding an equal volume of a stop buffer (1 M glycine, 0.5 M sodium bicarbonate, pH 11) and the fluorescence was measured at excitation/emission wavelengths of 355/460 nm in a microplate spectrofluorometer.

Data set [3] is described as follows: pH-dependent enzyme activity of recombinant human β-glucuronidase and variants (pH 3-10). The format is biochemical. Here is the method:
as §1, with “The measurement was repeated using the same amount of enzyme at different substrate concentrations in an optimal range.” left out, “Double reciprocal plots were used to determine Km and kcat.” left out, “The stability of recombinant human beta-glucuronidase variants was carried out by measuring their enzymatic activity at time 0 and again after incubating 5 μg purified enzymes in PBS (containing 0.5 mg/ml BSA) at 37° C. for 14 days.” left out, “The reaction was terminated by adding an equal volume of a stop buffer (1 M glycine, 0.5 M sodium bicarbonate, pH 11) and the fluorescence was measured at excitation/emission wavelengths of 355/460 nm in a microplate spectrofluorometer.” left out

In data set [4] the test system is EJ human bladder cancer cells. The data set is described as follows: Prodrug activation of HAMG by enzyme, 3H-thymidine incorporation. The format is cell-based. The conditions noted are these: 10 μM HAMG, pH 6.8, 24 h. Here is the method:
(§2) The prodrug activation activity of the human beta-glucuronidase variants was determined as follows. EJ human bladder cancer cells were incubated with graded concentrations (see FIGS. 3B and 3C) of human β-glucuronidase variants in RPMI (pH 6.8) containing either 10 μM HAMG or 100 nM SN-38G for 24 hours. The cells were further incubated for 24 hours in fresh medium before incorporation of ^3H-thymidine into cellular DNA was measured following the procedure described below.
(§3) Purified recombinant human beta-glucuronidase and its variants with defined concentrations were mixed with 10 μM HAMG or 100 nM SN-38G and the mixture was added to 5000 EJ human bladder cancer cells in 200 μl complete medium at pH 6.8 for 24 h. The cells were washed and incubated in fresh medium for 24 h and then pulsed for 16 h with ^3H-thymidine (1 μCi/well). The cells were harvested and the radioactivity was measured in a TopCount Microplate Scintillation Counter (Packard, Meriden, Conn.). Results are expressed as percent inhibition of ^3H-thymidine incorporation into cellular DNA in comparison to untreated cells.
(In general: Uptake of a labelled nucleoside into DNA is a usual measure of proliferation.)

Data set [5] has as its system EJ human bladder cancer cells. The experiment in a line: Prodrug activation of SN-38G by enzyme, 3H-thymidine incorporation. It counts as cell-based. The conditions noted are these: 100 nM SN-38G, pH 6.8, 24 h. As for the experimental part: as §2, §3
Data set [6] is described as follows: Enzymatic activity of purified position-545 single mutants at pH 7.0. It counts as biochemical. Particulars: purified enzyme. The source says:
DNA plasmids were extracted from 12 individual cell clones and subjected to DNA sequencing to examine mutations in the genes encoding human β-glucuronidase variants. All human β-glucuronidase variants being examined had mutations at position 545 (50% T→A and 50% T→S). To determine the effect of amino acid substitutions at position 545 on enzyme activity, the single amino acid mutants T545A (E1-A), T545G (E1-G), T545S (E1-S) and T545Y (E1-Y) were generated and purified from the culture medium of stably transfected fibroblasts. […] Thus, the single amino acid substitution at position 545 affected human β-glucuronidase activity at neutral pH.

B1: Wild type: Human beta-glucuronidase (wild-type, SEQ ID NO: 11) (protein, listed as Homo sapiens)
chain: MARGSAVAWAALGPLLWGCALGLQGGMLYPQESPSRECKELDGLWSFRADFSDNRRRGFEEQWYRRPLWESGPTVDMPVPSSFNDISQDWRLRHFVGWVWYEREVILPERWTQDLRTRVVLRIGSAHSYAIVWVNGVDTLEHEGGYLPFEADISNLVQVGPLPSRLRITIAINNTLTPTTLPPGTIQYLTDTSKYPKGYFVQNTYFDFFNYAGLQRSVLLYTTPTTYIDDITVTTSVEQDSGLVNYQISVKGSNLFKLEVRLLDAENKVVANGTGTQGQLKVPGVSLWWPYLMHERPAYLYSLEVQLTAQTSLGPVSDFYTLPVGIRTVAVTKSQFLINGKPFYFHGVNKHEDADIRGKGFDWPLLVKDFNLLRWLGANAFRTSHYPYAEEVMQMCDRYGIVVIDECPGVGLALPQFFNNVSLHHHMQVMEEVVRRDKNHPAVVMWSVANEPASHLESAGYYLKMVIAHTKSLDPSRPVTFVSNSNYAADKGAPYVDVICLNSYYSWYHDYGHLELIQLQLATQFENWYKKYQKPIIQSEYGAETIAGFHQDPPLMFTEEYQKSLLEQYHLGLDQKRRKYVVGELIWNFADFMTEQSPTRVLGNKKGIFTRQRQPKSAAFLLRERYWKIANETRYPHSVAKSQCLENSPFT
As for B1, the “Relative activity (FL4/FL1 normalized to wild-type human β-glucuronidase)” value in data set [1] is recorded as 1. In data set [2] (pH 4.5, 37° C.), the Km (usually the substrate concentration at which the rate is half of its maximum) came to 480 ± 60 µM and the kcat (in general, the maximal rate divided by the concentration of active sites) was determined as 175 ± 17 s⁻¹. In addition, in data set [2] (pH 7.0, 37° C.), the Km came out at 2250 ± 670 µM and the kcat is 41 ± 6 s⁻¹. Further, in data set [3] (0.1 mM ELF97 β-D-glucuronide, 37° C., 30 minutes), the “pH of maximal activity” value is recorded as 4.0. For the same molecule, the “Activity at pH 7.0 as percent of maximal activity” value in data set [3] (pH 7.0) was 2%. Also, the “EC50 of enzyme for killing of EJ cells with HAMG” value in data set [4] turned out to be 24 µg/mL. For the same molecule, the “EC50 of enzyme for killing of EJ cells with SN-38G” value in data set [5] is 0.096 µg/mL.

B2: E1-S: human beta-glucuronidase variant T545S, SEQ ID NO: 6 (protein)
chain: GAQPALQGGMLYPQESPSRECKELDGLWSFRADFSDNRRRGFEEQWYRRPLWESGPTVDMPVPSSFNDISQDWRLRHFVGWVWYEREVILPERWTQDLRTRVVLRIGSAHSYAIVWVNGVDTLEHEGGYLPFEADISNLVQVGPLPSRLRITIAINNTLTPTTLPPGTIQYLTDTSKYPKGYFVQNTYFDFFNYAGLQRSVLLYTTPTTYIDDITVTTSVEQDSGLVNYQISVKGSNLFKLEVRLLDAENKVVANGTGTQGQLKVPGVSLWWPYLMHERPAYLYSLEVQLTAQTSLGPVSDFYTLPVGIRTVAVTKSQFLINGKPFYFHGVNKHEDADIRGKGFDWPLLVKDFNLLRWLGANAFRTSHYPYAEEVMQMCDRYGIVVIDECPGVGLALPQFFNNVSLHHHMQVMEEVVRRDKNHPAVVMWSVANEPASHLESAGYYLKMVIAHTKSLDPSRPVTFVSNSNYAADKGAPYVDVICLNSYYSWYHDYGHLELIQLQLATQFENWYKKYQKPIIQSEYGAESIAGFHQDPPLMFTEEYQKSLLEQYHLGLDQKRRKYVVGELIWNFADFMTEQSPTRVLGNKKGIFTRQRQPKSAAFLLRERYWKIANETRYPHSVAKSQCLENSPFTSVD
modifications: Laboratory generated variant, E1-S, based upon the human beta-glucuronidase
On to B2, for which the “Relative activity (FL4/FL1 normalized to wild-type human β-glucuronidase)” value in data set [1] worked out at 21. The “Enzymatic activity relative to wild-type human β-glucuronidase” value in data set [6] is “about 1.5 fold”. Besides, the Km in data set [2] (pH 4.5, 37° C.) came to 52 ± 4 µM; in data set [2] (pH 7.0, 37° C.), 390 ± 40 µM. Further, the kcat in data set [2] (pH 4.5, 37° C.) came out at 117 ± 14 s⁻¹; in data set [2] (pH 7.0, 37° C.), 31 ± 6 s⁻¹. The “kcat/Km, fold higher than wild-type human β-glucuronidase” value in data set [2] worked out at 4 fold.

B3: E1-G: human beta-glucuronidase variant T545G, SEQ ID NO: 7 (protein)
chain: B2 chain with S528G
modifications: Laboratory generated variant, E1-G, based upon the human beta-glucuronidase
For B3, the “Enzymatic activity relative to wild-type human β-glucuronidase” value in data set [6] is listed as “about 2.5 fold”. For the same molecule, in data set [2] (pH 4.5, 37° C.), the Km amounted to 22 ± 2 µM and the kcat worked out at 106 ± 4 s⁻¹. In data set [2], the “kcat/Km, fold higher than wild-type human β-glucuronidase” value stood at 10 fold. In data set [2] (pH 7.0, 37° C.), the Km amounted to 110 ± 10 µM and the kcat amounted to 32 ± 4 s⁻¹.
